These results are taken from paper doi:10.1101/2024.05.25.595884 (bioRxiv, 2024).

First the molecules themselves.
B1: Trastuzumab scFab HCDR3 variant clone H3_72 (Fab, V domains shown)
VH: EVQLVESGGGLVQPGGSLRLSCAASGFNIKDTYIHWVRQAPGKGLEWVARIYPTNGYTRYADSVKGRFTISADTSKNTAYLQMNSLRAEDTAVYYCSRWRGKGFTAMDYWGQGTLVTVSS
VL: not shown
B2: Trastuzumab scFab HCDR3 variant clone H3_85 (Fab, V domains shown)
VH: EVQLVESGGGLVQPGGSLRLSCAASGFNIKDTYIHWVRQAPGKGLEWVARIYPTNGYTRYADSVKGRFTISADTSKNTAYLQMNSLRAEDTAVYYCSRWGRHGFNAMDYWGQGTLVTVSS
VL: not shown
B3: Trastuzumab scFab HCDR2/HCDR3 cross-combination clone H2/3_07 (Fab, V domains shown)
VH: EVQLVESGGGLVQPGGSLRLSCAASGFNIKDTYIHWVRQAPGKGLEWVARIRPVRGYTRYADSVKGRFTISADTSKNTAYLQMNSLRAEDTAVYYCSRWRSIGFYAMDYWGQGTLVTVSS
VL: not shown
B4: Trastuzumab scFab HCDR3 variant clone H3_29 (Fab, V domains shown)
VH: EVQLVESGGGLVQPGGSLRLSCAASGFNIKDTYIHWVRQAPGKGLEWVARIYPTNGYTRYADSVKGRFTISADTSKNTAYLQMNSLRAEDTAVYYCSRWRSIGFYAMDYWGQGTLVTVSS
VL: not shown
B5: Trastuzumab scFab HCDR2/HCDR3 cross-combination clone H2/3_03 (Fab, V domains shown)
VH: EVQLVESGGGLVQPGGSLRLSCAASGFNIKDTYIHWVRQAPGKGLEWVARIKPANGYTRYADSVKGRFTISADTSKNTAYLQMNSLRAEDTAVYYCSRWRSIGFYAMDYWGQGTLVTVSS
VL: not shown
B6: Trastuzumab scFab HCDR2 variant IRPVRG (Fab, V domains shown)
VH: EVQLVESGGGLVQPGGSLRLSCAASGFNIKDTYIHWVRQAPGKGLEWVARIRPVRGYTRYADSVKGRFTISADTSKNTAYLQMNSLRAEDTAVYYCSRWGGDGFYAMDYWGQGTLVTVSS
VL: not shown
B7: Trastuzumab scFab HCDR3 variant clone H3_77 (Fab, V domains shown)
VH: EVQLVESGGGLVQPGGSLRLSCAASGFNIKDTYIHWVRQAPGKGLEWVARIYPTNGYTRYADSVKGRFTISADTSKNTAYLQMNSLRAEDTAVYYCSRWRRKGFYAMDYWGQGTLVTVSS
VL: not shown

The target in the test is full-length human HER2 with enhanced green fluorescent protein (eGFP) at the C-terminal end (Homo sapiens, UniProt P04626). Put plainly: SPID.
As for B1, the binding result was “binds”.

Consider B2, for which the binding result is “binds”. With B3, the Kd is under 1 nM and the “fold enhancement in affinity compared to the original Trastuzumab” value amounted to 6 fold.

Take B4: the binding result is given as “binds”. Consider B5, for which the dissociation constant Kd is under 1 nM and the “fold enhancement in affinity compared to the original Trastuzumab” value was 6 fold.

B6: the Kd came to 2.6 nM. As for B7, the binding result is “binds”.
